Article PMC4297295, “Structural Conservation Despite Huge Sequence Diversity Allows EPCR Binding by the PfEMP1 Family Implicated in Severe Childhood Malaria” (Cell Host & Microbe, 2015)

T1: endothelial protein C receptor (EPCR), extracellular domain, biotinylated on the N-terminal BAP tag (human, UniProt Q9UNN8 18-210, biotin attached to the N-terminal BAP tag (BirA))
T1 construct: also called biotinylated recombinant EPCR; ECPR
T1 sequence: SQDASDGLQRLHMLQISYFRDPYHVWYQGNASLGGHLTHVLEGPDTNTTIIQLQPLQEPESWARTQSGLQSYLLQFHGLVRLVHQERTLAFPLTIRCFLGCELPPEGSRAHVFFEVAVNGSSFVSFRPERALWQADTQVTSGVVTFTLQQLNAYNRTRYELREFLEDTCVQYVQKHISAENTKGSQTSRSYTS

B1: CIDRα1.1 domain 2110-3 (patient isolate 2110) (domain or fragment)
chain: CPDCVVECVGGECKQKTDDDKNCRSKIIEEILKGEEPTVIDVLYSGNGQGVITKKLHDFCSSTNKEDDKYYKKWKCYNKNSDYNNCELISSLSTDPNDPNVMLSIKCFDSWARNLLVDALKWEHQLKNCINNTNVTDCKSNCNNNCKCYEEWIKRKGREWKQVKGVIENNDEGSHYYYKNVKNLFYNFLYPVIYKLEKEEKNGKWDQFMEDLKKKIESSETNTHTTDSQDAIELLLDHLKENAITCKDNNSLEEDKNC
B2: CIDRα1.8b domain GA029_ERS010532 (domain or fragment)
chain: PDCVVVCERGNCTEKKGDDKCRKKYTYEIPAGMESTKIDILFSGENQEDITEKLRSFCKNTNNENGENIEKWECYYKNEYDNKCKMTSLKREDQKHHDLMSYYEFFDFWVTHLIKDTIKWESDINDCINNTNVTNCNNGCNENCICFEKWVGQKEKEWENVKKVLKNPSENLNNYYNKLNGIFSGFFFGVMHELKKKEAKQGVKVEKAEKSEEAQEAQEEEAKWNKLTAKLEEIIKSHKENTGTGNTQDAIEPLLKYLDENAITCKDNNSLKEDKNCPKTKKNPC
notes: also called CIDRa1.8b GA029_ERS010532; GA029 (1.8b)
B3: CIDRα1.8b domain 1702-3 (patient isolate 1702) (domain or fragment)
chain: PDCIVVCDYKGCKENKNDENCKSKRTYSLPPDVNSTEIEVLFSGDNQEDIVEKLSSFCKNTNNENGENVEKWECYYESEHNNKCKMTSPKHKDEKRPTVMIFDEFFDFWVTHLIKDTIKWESDINDCINNTNVTDCDSACNENCKCFDEWVEKKEVEWGNVKKVLGNRSENLNIYYNKLNGIFSGFFFGVMHELKKKEAKQGVKAEEAQEAEETQEAQEEEAKWNKLTAKLQEIIDSSKGKADTANSQDAIKPLLEYIKETATTCIDNNSLAVENCPKTKINPC

What was measured:
[1] = molecular target: endothelial protein C receptor (EPCR), extracellular domain, biotinylated on the N-terminal BAP tag (human) (UniProt Q9UNN8); assay: SPR; Biacore T200; biotinylated EPCR captured on a CAP chip (Biotin Capture Kit) to 150 RU, fresh for each cycle; two-fold dilution series of each CIDRα1 injected for 240 s, dissociation 300 s; 20 mM HEPES pH 7.5, 150 mM NaCl, 0.005% Tween-20, 25°C; surface without EPCR subtracted; global fit to a 1:1 interaction model
[2] = molecular target: endothelial protein C receptor with an N-terminal biotin (human) (UniProt Q9UNN8); assay: SPR; Biacore T200; EPCR biotinylated with BirA and coupled to a biotin capture chip to 150 RU; binding partners injected for 240 s, dissociation 300 s; 1:1 interaction model
[3] = molecular target: endothelial protein C receptor (EPCR), extracellular domain, biotinylated on the N-terminal BAP tag (human) (UniProt Q9UNN8); assay: SPR
[4] = molecular target: T1, endothelial protein C receptor (EPCR), …; assay: SPR; conditions: both partners purified

Row | Molecule | Kd [1] [nM] | koff [1] [s⁻¹] | kon [1] [M⁻¹ s⁻¹] | also measured
1 | HB3var03 CIDRα1.4 domain, mutant F651A (domain or fragment) | 2.5 | 0.000394 | 160000 | 
2 | HB3var03 CIDRα1.4 domain, mutant W669S (domain or fragment) | 11 | 0.000449 | 40100 | 
3 | HB3var03 CIDRα1.4 domain, mutant V658A (domain or fragment) | 37 | 0.000719 | 19400 | 
4 | HB3var03 CIDRα1.4 domain, mutant F656Y (domain or fragment) | 1.9 | 0.000379 | 329000 | 
5 | HB3var03 CIDRα1.4 domain, mutant F655Y (domain or fragment) | 0.5 | 0.000572 | 1.1e+06 | 
6 | HB3var03 CIDRα1.4 F656V (domain or fragment) |  |  |  | Kd [2]: < 5 nM; fold reduction of the affinity against wild-type HB3var03 CIDRα1 [2]: 4 fold
7 | HB3var03 CIDRα1.4 domain, mutant F655L (domain or fragment) | 4.3 | 0.00063 | 145000 | 
8 | CIDRα1.4 domain of PfEMP1 IT4var07, E. coli construct with domain boundaries for crystallisation (domain or fragment) |  |  |  | Kd [3]: 1.3 nM; koff [3]: 0.000468 s⁻¹; kon [3]: 370000 M⁻¹ s⁻¹
9 | HB3var03 CIDRα1.4 F655Y (domain or fragment) |  |  |  | Kd [2]: < 5 nM
10 | HB3var03 CIDRα1.4 F656Y (domain or fragment) |  |  |  | Kd [2]: < 5 nM; fold reduction of the affinity against wild-type HB3var03 CIDRα1 [2]: 4 fold
11 | HB3var03 CIDRα1.4 domain, mutant Q657K (domain or fragment) | 72 | 0.00499 | 68900 | 
12 | HB3var03 CIDRα1.4 F655L (domain or fragment) |  |  |  | Kd [2]: < 5 nM
13 | HB3var03 CIDRα1.4 F656A (domain or fragment) |  |  |  | fold change in the dissociation rate constant against wild-type HB3var03 CIDRα1 [2]: 100 fold; fold effect on the affinity against wild-type HB3var03 CIDRα1 [2]: 35 fold
14 | HB3var03 CIDRα1.4 Q657K (domain or fragment) |  |  |  | fold reduction of the affinity against wild-type HB3var03 CIDRα1 [2]: 200 fold
15 | HB3var03 CIDRα1.4 domain, mutant F656V (domain or fragment) | 1.5 | 0.000223 | 145000 | 
16 | B1 |  |  |  | Kd [4]: 32 nM; koff [4]: 0.000511 s⁻¹; kon [4]: 15700 M⁻¹ s⁻¹
17 | B2 |  |  |  | Kd [4]: 24.2 nM; koff [4]: 0.000158 s⁻¹; kon [4]: 6550 M⁻¹ s⁻¹
18 | B3 |  |  |  | Kd [4]: 6 nM; koff [4]: 2.28e-05 s⁻¹; kon [4]: 3640 M⁻¹ s⁻¹
